Results reported in US20260041702A1.
Each block holds one molecule with its values, some of them ahead of it.

Key:
[1] = target: TRFE receptor, TRF1, on Rat2 fibroblasts (rat) (UniProt Q99376); experiment: HATRIC-LRC (LRC-TriCEPS) ligand-receptor capture on Rat2 fibroblasts, LC-MS/MS; positive control of the screen
[2] = target: CCN1 found in the HEK293A cell screen (human) (UniProt O00622); experiment: HATRIC-LRC (LRC-TriCEPS) ligand-receptor capture on HEK293A cells, LC-MS/MS; reference BSA control ligand
[3] = target: GPC1 on HEK293A cells (human) (UniProt P35052); experiment: as above
[4] = target: GPC4 on HEK293A cells (human) (UniProt O75487); experiment: as above
[5] = target: PTK7 on HEK293A cells (human) (UniProt Q13308); experiment: as above
[6] = target: CCN1 found in the HEK293A cell screen (human) (UniProt O00622); experiment: HATRIC-LRC (LRC-TriCEPS) ligand-receptor capture on HEK293A cells, LC-MS/MS; reference TRFE control ligand
[7] = target: GPC1 on HEK293A cells (human) (UniProt P35052); experiment: as above
[8] = target: GPC4 on HEK293A cells (human) (UniProt O75487); experiment: as above
[9] = target: PTK7 on HEK293A cells (human) (UniProt Q13308); experiment: as above
[10] = target: CCN1 found in the Rat2 cell screen (rat) (UniProt Q9ES72); experiment: HATRIC-LRC (LRC-TriCEPS) ligand-receptor capture on Rat2 fibroblasts, LC-MS/MS; reference BSA control ligand
[11] = target: GPC1 on Rat2 fibroblasts (rat) (UniProt P35053); experiment: as above
[12] = target: PTK7 on Rat2 fibroblasts (rat); experiment: as above
[13] = target: CCN1 found in the Rat2 cell screen (rat) (UniProt Q9ES72); experiment: HATRIC-LRC (LRC-TriCEPS) ligand-receptor capture on Rat2 fibroblasts, LC-MS/MS; reference TRFE control ligand
[14] = target: GPC1 on Rat2 fibroblasts (rat) (UniProt P35053); experiment: as above
[15] = target: PTK7 on Rat2 fibroblasts (rat); experiment: as above

Chain of UniProt Q13308 (Q13308 31-1070 limits assumed): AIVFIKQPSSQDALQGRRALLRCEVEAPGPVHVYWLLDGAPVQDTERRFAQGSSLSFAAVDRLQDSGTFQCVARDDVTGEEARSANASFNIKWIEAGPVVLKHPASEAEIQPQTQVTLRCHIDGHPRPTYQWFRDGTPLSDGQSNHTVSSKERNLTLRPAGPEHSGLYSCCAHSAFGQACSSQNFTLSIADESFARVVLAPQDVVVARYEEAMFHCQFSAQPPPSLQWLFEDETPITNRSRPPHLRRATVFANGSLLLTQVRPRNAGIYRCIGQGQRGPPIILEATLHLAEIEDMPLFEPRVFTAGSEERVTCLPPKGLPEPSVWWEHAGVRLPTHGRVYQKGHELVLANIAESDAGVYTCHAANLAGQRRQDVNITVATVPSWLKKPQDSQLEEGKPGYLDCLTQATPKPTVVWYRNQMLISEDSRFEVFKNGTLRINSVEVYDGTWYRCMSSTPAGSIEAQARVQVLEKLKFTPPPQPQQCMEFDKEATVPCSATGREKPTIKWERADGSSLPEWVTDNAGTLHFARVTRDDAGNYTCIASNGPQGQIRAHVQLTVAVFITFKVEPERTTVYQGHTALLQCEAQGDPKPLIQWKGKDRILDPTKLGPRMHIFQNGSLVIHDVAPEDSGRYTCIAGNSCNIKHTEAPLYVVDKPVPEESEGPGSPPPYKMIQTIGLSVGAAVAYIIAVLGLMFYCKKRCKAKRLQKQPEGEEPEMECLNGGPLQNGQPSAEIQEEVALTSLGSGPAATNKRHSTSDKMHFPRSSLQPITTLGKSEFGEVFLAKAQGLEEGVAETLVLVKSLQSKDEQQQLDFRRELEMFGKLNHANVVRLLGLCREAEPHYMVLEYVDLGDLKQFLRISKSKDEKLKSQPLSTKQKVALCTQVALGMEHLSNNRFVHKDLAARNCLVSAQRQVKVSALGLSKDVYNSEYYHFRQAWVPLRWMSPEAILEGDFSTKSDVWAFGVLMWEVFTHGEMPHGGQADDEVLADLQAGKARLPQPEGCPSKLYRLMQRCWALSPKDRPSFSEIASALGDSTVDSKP
Chain of UniProt P35053 (P35053 24-530): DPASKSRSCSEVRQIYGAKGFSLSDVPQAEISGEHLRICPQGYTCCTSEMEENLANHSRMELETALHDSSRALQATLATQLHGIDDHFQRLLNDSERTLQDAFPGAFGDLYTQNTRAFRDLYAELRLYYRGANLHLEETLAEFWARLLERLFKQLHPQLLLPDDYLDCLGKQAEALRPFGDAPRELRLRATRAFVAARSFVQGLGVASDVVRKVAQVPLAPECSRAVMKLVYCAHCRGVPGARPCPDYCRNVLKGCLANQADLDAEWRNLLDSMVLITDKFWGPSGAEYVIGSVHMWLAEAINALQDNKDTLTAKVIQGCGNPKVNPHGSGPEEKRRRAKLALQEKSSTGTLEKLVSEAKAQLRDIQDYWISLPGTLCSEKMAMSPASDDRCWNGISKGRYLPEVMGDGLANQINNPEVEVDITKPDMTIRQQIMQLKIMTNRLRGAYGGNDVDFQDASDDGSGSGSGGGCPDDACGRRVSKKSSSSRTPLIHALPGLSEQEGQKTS
Chain of UniProt O00622 (O00622 25-381 limits assumed): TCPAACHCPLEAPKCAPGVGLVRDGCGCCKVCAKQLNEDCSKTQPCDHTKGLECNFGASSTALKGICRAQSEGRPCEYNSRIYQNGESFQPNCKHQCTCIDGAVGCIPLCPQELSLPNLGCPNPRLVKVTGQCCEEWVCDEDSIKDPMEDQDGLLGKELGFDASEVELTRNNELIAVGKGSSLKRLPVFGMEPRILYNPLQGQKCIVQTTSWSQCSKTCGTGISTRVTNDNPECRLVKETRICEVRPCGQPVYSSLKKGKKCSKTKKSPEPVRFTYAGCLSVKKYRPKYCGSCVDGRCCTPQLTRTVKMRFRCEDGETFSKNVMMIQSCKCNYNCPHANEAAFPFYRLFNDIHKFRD
Chain of UniProt P35052 (P35052 24-530 limits assumed): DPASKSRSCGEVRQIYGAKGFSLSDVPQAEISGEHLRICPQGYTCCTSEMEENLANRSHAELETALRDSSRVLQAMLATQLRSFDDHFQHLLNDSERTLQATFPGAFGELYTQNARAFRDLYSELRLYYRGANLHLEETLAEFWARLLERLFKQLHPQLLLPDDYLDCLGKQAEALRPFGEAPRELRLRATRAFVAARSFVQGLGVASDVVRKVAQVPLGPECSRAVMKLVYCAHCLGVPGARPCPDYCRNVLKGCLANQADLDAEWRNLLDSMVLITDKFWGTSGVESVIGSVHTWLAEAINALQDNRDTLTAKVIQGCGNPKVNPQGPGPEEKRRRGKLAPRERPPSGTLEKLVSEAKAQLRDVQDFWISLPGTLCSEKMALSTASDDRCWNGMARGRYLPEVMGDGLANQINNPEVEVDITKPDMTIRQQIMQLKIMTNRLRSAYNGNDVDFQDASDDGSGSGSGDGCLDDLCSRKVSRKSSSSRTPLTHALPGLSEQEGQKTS
Chain of UniProt Q9ES72 (Q9ES72 25-379 limits assumed): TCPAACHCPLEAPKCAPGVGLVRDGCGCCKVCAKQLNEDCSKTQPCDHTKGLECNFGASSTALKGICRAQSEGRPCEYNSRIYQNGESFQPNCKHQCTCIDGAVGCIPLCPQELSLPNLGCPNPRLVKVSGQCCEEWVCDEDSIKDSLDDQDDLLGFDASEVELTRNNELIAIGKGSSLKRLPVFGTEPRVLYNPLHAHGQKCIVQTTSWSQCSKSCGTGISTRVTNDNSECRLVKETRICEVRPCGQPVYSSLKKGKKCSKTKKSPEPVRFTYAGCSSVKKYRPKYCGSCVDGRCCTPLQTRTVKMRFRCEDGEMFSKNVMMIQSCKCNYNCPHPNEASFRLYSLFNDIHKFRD
Chain of UniProt O75487 (O75487 19-529 limits assumed): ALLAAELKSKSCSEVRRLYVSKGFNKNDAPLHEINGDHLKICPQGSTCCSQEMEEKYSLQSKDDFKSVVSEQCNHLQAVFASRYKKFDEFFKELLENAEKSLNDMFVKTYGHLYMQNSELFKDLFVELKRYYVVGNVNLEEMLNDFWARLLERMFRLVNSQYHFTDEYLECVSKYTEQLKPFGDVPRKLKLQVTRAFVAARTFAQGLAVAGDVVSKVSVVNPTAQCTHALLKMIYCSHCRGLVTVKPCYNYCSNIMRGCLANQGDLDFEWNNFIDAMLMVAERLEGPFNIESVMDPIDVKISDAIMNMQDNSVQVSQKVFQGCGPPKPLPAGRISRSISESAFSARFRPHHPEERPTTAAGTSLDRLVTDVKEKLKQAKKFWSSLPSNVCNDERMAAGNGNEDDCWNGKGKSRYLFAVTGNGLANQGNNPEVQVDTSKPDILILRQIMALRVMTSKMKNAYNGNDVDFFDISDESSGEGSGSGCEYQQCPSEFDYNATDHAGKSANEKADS
Chain of UniProt Q99376 (Q99376 whole entry): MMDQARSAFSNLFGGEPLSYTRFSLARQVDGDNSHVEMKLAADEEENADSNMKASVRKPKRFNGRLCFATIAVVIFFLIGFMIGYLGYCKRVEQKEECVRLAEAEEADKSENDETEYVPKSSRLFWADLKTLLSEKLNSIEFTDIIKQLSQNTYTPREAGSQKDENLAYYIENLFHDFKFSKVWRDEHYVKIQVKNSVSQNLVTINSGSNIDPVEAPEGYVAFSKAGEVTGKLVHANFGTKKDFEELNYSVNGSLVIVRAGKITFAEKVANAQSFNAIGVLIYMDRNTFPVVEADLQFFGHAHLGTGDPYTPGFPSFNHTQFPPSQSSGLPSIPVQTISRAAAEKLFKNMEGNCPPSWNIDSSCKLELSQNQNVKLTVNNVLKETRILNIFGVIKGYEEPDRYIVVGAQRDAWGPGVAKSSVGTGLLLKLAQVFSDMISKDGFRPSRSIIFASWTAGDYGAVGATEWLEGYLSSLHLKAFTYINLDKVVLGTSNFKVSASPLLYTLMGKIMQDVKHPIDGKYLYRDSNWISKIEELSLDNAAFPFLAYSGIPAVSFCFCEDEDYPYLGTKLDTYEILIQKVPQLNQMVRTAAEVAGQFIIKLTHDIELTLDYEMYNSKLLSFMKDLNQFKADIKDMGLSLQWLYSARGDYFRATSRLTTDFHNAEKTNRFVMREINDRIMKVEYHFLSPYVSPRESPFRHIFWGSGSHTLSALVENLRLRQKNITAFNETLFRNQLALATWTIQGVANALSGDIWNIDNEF

log 2 (FC), TRFE group against d34CCN2 group (log2 fold change) [1]: -2.8
Molecule: transferrin (TRFE) coupled to TriCEPS v3.0 (ligand)

log 2 (FC) enrichment relative to BSA (log2 fold change) [2]: 5.63
log 2 (FC) enrichment relative to BSA (log2 fold change) [3]: 2.85
log 2 (FC) enrichment relative to BSA (log2 fold change) [4]: 2.85
log 2 (FC) enrichment relative to BSA (log2 fold change) [5]: 3.26
log 2 (FC) enrichment relative to TRFE (log2 fold change) [6]: 4.73
log 2 (FC) enrichment relative to TRFE (log2 fold change) [7]: 4.19
log 2 (FC) enrichment relative to TRFE (log2 fold change) [8]: 2.84
log 2 (FC) enrichment relative to TRFE (log2 fold change) [9]: 3.09
log 2 (FC) enrichment relative to BSA (log2 fold change) [10]: 3.4
log 2 (FC) enrichment relative to BSA (log2 fold change) [11]: 4.2
log 2 (FC) enrichment relative to BSA (log2 fold change) [12]: 2.7
log 2 (FC) enrichment relative to TRFE (log2 fold change) [13]: 4.1
log 2 (FC) enrichment relative to TRFE (log2 fold change) [14]: 4.4
log 2 (FC) enrichment relative to TRFE (log2 fold change) [15]: 3
B1: recombinant, human C-terminal (domains III-IV) CCN2 coupled to TriCEPS v3.0 (ligand, UniProt P29279 197-349, looked up)
chain: ANCLVQTTEWSACSKTCGMGISTRVTNDNASCRLEKQSRLCMVRPCEADLEENIKKGKKCIRTPKISKPIKFELSGCTSMKTYRAKFCGVCTDGRCCTPHRTTTLPVEFKCPDGEVMKKNMMFIKTCACHYNCPGDNDIFESLYYRKMYGDMA
modifications: coupled to the trifunctional TriCEPS v3.0 molecule (site of coupling not stated)
